From US20100120700A1, “METHODS AND COMPOSITIONS FOR TREATING CERVICAL CANCER” (priority 2000, published 2010)
“Also recorded” adds a separate entry of the source. Read-outs that look alike come from different tables or passages of the source.

Legend:
human PDZ domains = experiment: G assay, E6 PL peptides against PDZ domain panel; details: value names the PDZ domain(s) that saturated binding with the E6 peptide; signal classes (A450 nm 3-4 or 4)
Procedure: (1) A PDZ-domain polypeptide is bound to a surface, e.g. a protein binding surface. In a preferred embodiment, a GST/PDZ fusion protein containing one or more PDZ domains is bound to a polystyrene 96-well plate. […] In one embodiment, the GST/PDZ fusion protein is bound via an anti-GST antibody that is coated onto the 96-well plate. Adequate binding to the plate can be achieved when: • a. 100 uL per well of 5 ug/mL goat anti-GST polyclonal antibody (Pierce) in PBS is added to a polystyrene 96-well plate (e.g., Num Polysorb) at 4° C. for 12 hours. • b. The plate is blocked by addition of 200 uL per well of PBS/BSA for 2 hours at 4° C. • c. The plate is washed 3 times with PBS. • d. […]
(3) The binding of the biotinylated peptide to the GST/PDZ fusion protein surface can be detected using a variety of methods and detectors known to one of skill in the art. […] The reaction of the HRP and its substrate is terminated by addition of 100 uL per well of 1M sulfuric acid, and the absorbance of each well of the plate is read at 450 nm.
(4) Specific binding of a PL peptide and a PDZ domain polypeptide is determined by comparing the signal from the well(s) in which the PL peptide and PDZ domain polypeptide are combined, with the background signal(s). […]

GST-HPV11E6 = target: T1, GST-HPV11E6 (Human papillomavirus 11, UniProt P04019); experiment: Modified ELISA, TIP-TIP-IgG binding to full length E6; design: species or system HPV11; details: plate coated with 5 ug/ml GST-E6; FIG. 2
T1 construct: made in house; host or cells: E. coli
Procedure: (§1) Protocol • 1) Coat plate with 5 ug/ml GST-E6 fusion protein, O/N @4° C. • 2) Dump proteins out and tap dry • 3) Blocking—Add 200 ul per well 2% BSA/PBS, 2 hrs at 4° C. • 4) Prepare PDZ proteins (50:50 mixture of supematant from TIP-TIP-IgG transfection and 2% BSA/PBS) • 5) 3× wash with cold PBS • 6) Add PDZ protein prepared in step 7 or anti-E6 Ab at 1 ug/ml in 2% BSA/PBS (or anti-GST Ab as control). • 7) 3× wash with cold PBS • 8) Add appropriate concentration of enzyme-conjugated detection Ab (anti-hIgG-HRP, anti-goat-HRP, or anti-mouse-HRP) 100 ul per well on ice, 20 minutes at 4° C. • 9) Turn on plate reader and prepare files • 10) 5× wash with Tween wash buffer, avoiding bubbles • 11) Using gloves, add TMB substrate at 100 ul per well • incubate in dark at room temp • check plate periodically (5, 10, & 20 minutes) • take early readings, if necessary, at 650 nm (blue) • at 30 minutes, stop reaction with 100 ul of 1M H2SO4 • take final reading at 450 nm (yellow)

[1] = target: GST-HPV18E6 fusion protein (Human papillomavirus type 18, UniProt P06463); details: plate coated with 5 ug/ml GST-E6, unpurified TIP-TIP-IgG supernatant, FIG. 2
Chain of GST-HPV18E6 fusion protein (P06463 whole entry, the tested form may be a part): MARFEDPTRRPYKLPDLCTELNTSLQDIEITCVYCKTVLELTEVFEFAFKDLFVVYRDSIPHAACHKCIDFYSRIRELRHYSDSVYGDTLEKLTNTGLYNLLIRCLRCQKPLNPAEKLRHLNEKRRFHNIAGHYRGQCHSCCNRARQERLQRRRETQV
Procedure: as §1

T1 sequence (P04019 whole entry): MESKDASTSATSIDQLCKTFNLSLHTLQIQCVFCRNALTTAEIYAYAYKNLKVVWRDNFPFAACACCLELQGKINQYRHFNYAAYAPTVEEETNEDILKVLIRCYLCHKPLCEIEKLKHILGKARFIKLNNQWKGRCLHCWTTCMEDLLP

| Molecule | PDZ binding partner (signal 4 and 5 of 0-5) (human PDZ domains) | binding to full length non-oncogenic E6 (HPV11) (GST-HPV11E6) | binding to full length oncogenic E6 (HPV18) [1] | binding to full length oncogenic E6 (HPV18) ([1]; listed as TIP-1) |
| --- | --- | --- | --- | --- |
| HPV 18: biotinylated 18-20 aa E6 C-terminal peptide of HPV 18, terminal residues E T Q V; RLQRRRETQV (SEQ ID NO: 14) | TIP1 and Magi 1 (PDZ #2) | – | – | – |
| TIP-TIP-IgG fusion protein: two copies of the TIP-1 PDZ domain fused to the hIgG constant region (protein, left off: a dimerising Fc or GST, two copies of the TIP-1 PDZ domain fused to the hIgG constant region) QRVEIHKLRQGENLILGFSIGGGIDQDPSQNPFSEDKTDKGIYVTRVSEGGPAEIAGLQIGDKIMQVNGWDMTMVTHDQARKRLTKRSEEVVRLLVTRQSLQKQRVEIHKLRQGENLILGFSIGGGIDQDPSQNPFSEDKTDKGIYVTRVSEGGPAEIAGLQIGDKIMQVNGWDMTMVTHDQARKRLTKRSEEVVRLLVTRQSLQK | – | did not show any reactivity; also recorded: without binding to non-oncogenic variants | able to recognize GST-HPV18E6 fusion protein at levels comparable to an antibody generated against HPV18-E6 | could specifically recognize full length E6 protein from an oncogenic strain (HPV18) |
